By AUC is commonly meant concentration integrated over time.

The nature of the data set: Area under the curve (AUC) and increase ratio (ER) of FD-4 in plasma after oral administration to Wistar rats. The procedure:
Next, FD-4 was orally administered to Wistar rats using an oral sonde so that the dosage was 0.3 mg/kg. After the administration of the sample, blood was collected six times in total until six hours after the administration of the sample, and plasma was fractionated.
It is noted that “AUCt” is AUC (ng·h/mL) of the test preparation, and “dosage t” is dosage (mg/kg) of the test preparation (target data of the test preparation obtained in the above 2).

As for “fluorescein isothiocyanate-dextran 4 [Comparative Example 4]”, the AUC runs as follows: (Wistar rats, FD-4 dosage 0.3 mg/kg, up to 6 hr, linear trapezoidal method) 24.3 ng·h/mL; (rat, FD-4 dosage 5.0 mg/kg) 390.5 ng·h/mL. Besides, where the note is “rat, FD-4 dosage 0.3 mg/kg”, the “AUCs (reference data of standard preparation)” value was found to be 24.3 ng·h/mL.

These data come from patent US20250367120A1, “PHARMACEUTICAL COMPOSITION AND METHOD FOR PRODUCING SAME” (SUNSHO PHARMACEUTICAL CO., LTD., priority 2022, published 2025).
